B1: OVA-PEG: ovalbumin conjugated to ~10 kDa PEG via activated carbonate-amine conjugation (conjugate, UniProt P01012 2-386, looked up)
Ovalbumin: GSIGAASMEFCFDVFKELKVHHANENIFYCPIAIMSALAMVYLGAKDSTRTQINKVVRFDKLPGFGDSIEAQCGTSVNVHSSLRDILNQITKPNDVYSFSLASRLYAEERYPILPEYLQCVKELYRGGLEPINFQTAADQARELINSWVESQTNGIIRNVLQPSSVDSQTAMVLVNAIVFKGLWEKAFKDEDTQAMPFRVTEQESKPVQMMYQIGLFRVASMASEKMKILELPFASGTMSMLVLLPDEVSGLEQLESIINFEKLTEWTSSNVMEERKIKVYLPRMKMEEKYNLTSVLMAMGITDVFSSSANLSGISSAESLKISQAVHAAHAEINEAGREVVGSAEAGVDAASVSEEFRADHPFLFCIKHIATNAVLFFGRCVSP
modifications: 10 kDa PEG conjugate
B2: OVA-POEGMA: ovalbumin conjugated to ~10 kDa EG3 POEGMA via activated carbonate-amine conjugation (conjugate, UniProt P01012 2-386, looked up)
Ovalbumin: B1 Ovalbumin
modifications: 10 kDa EG3 POEGMA conjugate

Legend:
C57BL6/J mice = settings: mouse, in vivo
Experimental: (§1) Immunogenicity. Immunogenicity of POEGMA was tested and compared to that of PEG in three sets of immunogenicity experiments. […] In the second set of experiments, mice were injected with OVA (Invivogen), OVA-PEG10K, and OVA-POEGMA10K at 9.6 nmol kg^−1. In the final set, OVA, OVA-PEG10K, and OVA-POEGMA10K were emulsified in an equal volume of sterile and endotoxin-free adjuvant (Invivogen) and then administrated into 7-week-old C57BL/6J mice (n=10) at 9.6 nmol kg^−1. Complete Freund's adjuvant (CFA) was used for the first injection, while incomplete Freund's adjuvant (IFA) was the adjuvant of choice for the rest of the injections. In all experimental sets, an equal injection volume of PBS (or PBS emulsified in CFA or IFA) was used as a negative control. All drugs were administrated into mice every 17 days three times (Day 0, 17, and 34). […]
(§2) Analysis of anti-drug antibodies (ADA), ADAs were analyzed using a Luminex multiplex immunoassay (LMI) according to the manufacturer's instructions with minor modifications. […]
(§3) In a typical LMI assay, 50 μl of the diluted plasma samples (n=3) were transferred to a black, round-bottom 96-well-plate (Corning). […] Finally, magnetic beads were suspended in 100 μl of assay buffer, followed by measuring mean fluorescence signal intensity (MFI) using MAGPIX (Luminex) instrument. […]

C57BL/6J mice = settings: mouse, in vivo, sc
Experimental: as §1, §2, §3

| Molecule | PEG-specific IgM titer, higher than with exendin-PEG (C57BL6/J mice) | anti-POEGMA response with Freund's adjuvant (C57BL/6J mice) |
| --- | --- | --- |
| B1 | ~60 fold |  |
| B2 |  | only a weak IgM response disappearing after the first injection |

— patent US20240181013A1, “POEGMA COPOLYMER CONJUGATES AND METHODS OF TREATING DISEASES” (Duke University, priority 2021, published 2024)
